Laboratory results taken from patent US10556007B2, “Antibody which binds Lrg1 and methods of use” (UCL Business PLC, priority 2015, dated 2020).
Values joined by “and” are separate entries in the source; they are usually repeats but may differ in a detail not shown here. Equal entries are not always repeated. “Also recorded” adds a separate entry of the source.

Assays:
human Lrg1 [1] = target: T1, human Lrg1 (Homo sapiens, UniProt P02750); assay: Western blot specificity for human Lrg1; format: binding; conditions: conditioned medium from MDA-MB cells, human vitreous, whole human serum
T1 sequence (P02750 36-347): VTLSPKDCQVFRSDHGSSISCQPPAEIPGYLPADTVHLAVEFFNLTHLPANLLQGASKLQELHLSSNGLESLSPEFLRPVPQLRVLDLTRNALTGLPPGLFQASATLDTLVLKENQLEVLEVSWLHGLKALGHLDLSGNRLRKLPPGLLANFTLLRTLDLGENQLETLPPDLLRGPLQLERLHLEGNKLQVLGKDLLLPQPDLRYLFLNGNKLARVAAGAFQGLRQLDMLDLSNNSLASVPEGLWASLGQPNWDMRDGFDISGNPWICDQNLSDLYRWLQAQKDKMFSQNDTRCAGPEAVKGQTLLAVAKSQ
Method: To evaluate the specificity of the lead mAbs for human Lrg1 western blot analysis of each was performed against conditioned medium from the MDA-MB human tumour cell line, samples of human vitreous humour, and samples of whole human serum.

[2] = test system: laser-induced choroidal neovascularisation; assay: Mouse model of laser-induced CNV; format: in vivo; conditions: intraocular injection at lasering, FFA after 7 days
Method: The images on the left of FIG. 17A show a typical wild-type mouse retina under normal illumination (Fundus), and under fluorescence illumination, 7 days after three laser burns were administered to the retinal pigment epithelium. Fluorescence images were captured ˜60 seconds after systemic dosing with fluorescein (Early Phase FFA) and again after ˜7 minutes (Late Phase FFA). At the time of lasering, animals received intraocular injections of either control IgG (top panels) or 15C4 (lower panels). The Early Phase FFA images show the size of the lesions, and the Late Phase images show leakage of fluorescein into the retina. Lesion sizes were quantified for 15C4 at 2.5, 5 and 10 μg doses, and also Eylea at 2 and 4 μg, and the % blocking is a measure of average lesion size relative to that observed in the controls. On the far right a similar analysis was undertaken using Eylea and Magacizumab (both at 2.1 μg) alone and in combination.
Wild type C57B6 mice were anaesthetized and received intravitreal injections of various doses of either Magacizumab, Eylea, or both in combination, immediately following laser photocoagulation of the retinal pigment epithelium. After 7 days (to allow the vascular lesions to form) the mice were again anaesthetized and examined by fluorescein angiography (FFA). Early phase FFA images (taken after 90 s) show the degree of vascularization at the lesion site. Measurement of the lesion area in the early phase images permits quantification in which percentage lesion size is normalized against the IgG4 control (FIG. 18).

[3] = test system: HUVEC co-cultured with human fibroblasts; assay: HUVEC co-culture model of angiogenesis; format: cell-based; conditions: 14 days co-culture, 10-200 nM
Method: Antibodies 4H2, 15C4 and 3A11 were tested to see if they elicited an inhibition of vessel growth in the co-culture model of angiogenesis. HUVEC were co-cultured with human fibroblasts for 14 days, and then fixed and immunostained with an antibody against PECAM. Avastin was included as a positive control, and all four mAbs were tested at 10, 25, 50, 100 and 200 nM. There were two important observations from this experiment.

LL/2 tumours = assay: LL/2 tumour vasculature; format: in vivo, mouse; conditions: wild type mice, 50 mg per kg
Text: B16/F0 and LL/2 […] tumour cell lines were grafted into wild type and Lrg1 knockout mice.

human Lrg1 [4] = target: T1, human Lrg1; assay: Biacore affinity and binding kinetics, human Lrg1
Method: Biacore was used to measure the binding affinity, association and dissociation constants of the antibodies to human Lrg1. Human Lrg1 was immobilized on the Biacore chip, and mAbs passed across at concentrations ranging from 20-100 nM. A cut off binding affinity value of 2 nM was used to isolate possible candidate antibodies for further investigation.
The four lead mAbs were examined using Biacore, in experiments in which human Lrg1 was immobilized on the chip, and mAbs passed across at concentrations ranging from 20-100 nM. The Table below summarises the kinetic data.

[5] = target: T2, Lrg1 (overlapping 15-mer peptides and full length) (Homo sapiens, UniProt P02750); assay: Epitope mapping on ProArray Ultra peptide microarray; format: binding
T2 sequence (P02750 36-347): T1 sequence (P02750 36-347)
Method: The determination of peptide-antibody binding was performed by incubation of serum or antibody samples with a ProArray Ultra® peptide microarray, followed by incubation with a fluorescent-labelled secondary antibody.
All peptides were synthesized separately, and then bound to the ProArray Ultra® slide surface using Prolmmune's proprietary technology. This optimised process ensured that peptides were presented on the array in such a manner as to closely mimic the properties of the corresponding protein region, circumventing the inherent physiochemical variation of the free peptides themselves and making a compatible, combined peptide and protein array platform. The test analytes (peptides or proteins) were dispensed onto the ProArray Ultra® slide in discrete spots and appropriate gal-files enabled exact alignment of the resulting array features back to the analyte deposited.
ProArray Ultra® slides were blocked using a validated blocking buffer to reduce non-specific binding of the sera. […] After several washing steps, the ProArray Ultra® arrays were dried and scanned using a high-resolution fluorescence microarray scanning system. […]
ProArray Ultra® slides containing the immobilised peptides were incubated with the antibody samples. […] The murine IgG positive controls were detected in all samples. […]

[6] = test system: lesions in RPE/Choroid of the JR5558 mouse; assay: JR5558 mouse lesion formation; format: in vivo; conditions: 50 mg/kg IP every 3 days from D14, eyes harvested D25, vs IgG
Method: 15C4 or IgG at 50 mg/kg was administered IP every 3 days from D14. Eyes were harvested on D25 and RPE/Choroid stained with Collagen IV. The number of lesions was counted and data quantified for the two groups.

[7] = test system: explanted E16.5 mouse metatarsals; assay: Mouse metatarsal angiogenesis assay (ex vivo); format: cell-based; conditions: mAbs at 100 nM, 12 days of culture
Method: In this assay the function-blocking activity of the mAbs was tested, using explanted E16.5 mouse metatarsals. Vessels grow spontaneously from the embryonic bones to form a 2D-network that can be readily quantified with regard to, for example, vessel length, calibre and branch points. In the mouse metatarsal assay mAbs were added at 100 nM to the culture medium during 12 days of culture, with replenishment of media and mAbs every two days. At the end of the experiment samples were fixed and immunostained for Platelet endothelial cell adhesion molecule (PECAM), and vascular networks were quantified using Imaris software, with normalization to a phosphate buffered saline (PBS) control.

B1: 15C4: mouse monoclonal antibody against human Lrg1, VH SEQ ID NO: 1, VL SEQ ID NO: 2 (antibody, V domains shown)
VH: QVQLQQSGDEVVRPGSSVKISCKASGYTFSGYWMNWVKQRPGQGLQWIGQIYPGDGDTNYNGKFKGKATLTADKSSSTAYMQLSTLTSEDSAIYFCARSITTVVLDYWGQGTTLTVSS
VL: DIVLTQSPVSLAVSLGQRATISCRASQSVSTSGYSFMHWYQQKPGQPPKFLIKYASNLESGVPARFSGSGSGTDFTLNIHPVEEEDTATYYCQHSWEMPLTFGAGTKLELK
modifications: 15C4 Variable Heavy Chain; 15C4 Variable light chain
recognition of Lrg1 band on western blot (human Lrg1 [1]): strongly recognise a single band of Lrg1 at 50 kD in the conditioned medium and vitreous | lesion formation [2]: inhibited lesion formation; also recorded: inhibit lesion formation with similar efficacy to the VEGF blocker Eylea | inhibition of vessel growth [3]: equally effective | replication of Lrg1 knockout tumour vessel phenotype (LL/2 tumours): These results were mimicked | affinity for human Lrg1 (in words) (human Lrg1 [4]; Biacore): affinity in the picomolar range; also recorded: bound with especially high affinity; also recorded: very high affinity; also recorded: much higher affinity for human Lrg1 | Ka (human Lrg1 [4]; human Lrg1 immobilized on chip, mAbs at 20-100 nM): 1.10E+05 | dissociation rate constant (kd) (human Lrg1 [4]; rate constant column beside Ka, human Lrg1 immobilized on chip, mAbs at 20-100 nM): 1.40E−07 | Kd (human Lrg1 [4]; text summary of Biacore data, read-out: binding affinities for human Lrg1): 1.2 pM | binding to full length Lrg1 on array [5]: binder at all dilutions | number of lesions [6]: reduces lesion formation; also recorded: significantly fewer lesions | inhibition of angiogenesis (in words) [7]: inhibited angiogenesis | inhibition of angiogenesis ([7]; normalised to PBS control, 0.1 µM): ~40% and > 25%
